Measurements taken from US20230151085A1 (TRINOMAB BIOTECH, published 2023).

Assays:
[1] = target: T1, human neurotrophin-4 (hNT-4) (human, UniProt P34130 81-210); test: ELISA, neurotrophin coated on plate, goat anti-human IgG-HRP detection
T1 construct: Bought protein (Absin)
T1 sequence (looked up): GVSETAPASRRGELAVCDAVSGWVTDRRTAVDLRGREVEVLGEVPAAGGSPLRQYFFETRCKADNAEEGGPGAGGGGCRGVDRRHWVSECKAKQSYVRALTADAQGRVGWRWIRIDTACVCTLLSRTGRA
Description: (§1) The present invention determines the cross-reactivity of antibody TRN1027 to other neurotrophins by ELISA. HBDNF, hNT-3 and hNT-4 (Absin) were used as antigens to coat the 96-well plate at […] overnight at 4° C., respectively. Then the plate was blocked with the blocking solution for 2 hours at ambient temperature. The plate was added with antibody TRN1027 with decreasing concentrations (ranging from 10 ug/ml-0 ug/ml) at 100 ul/well and incubated at 37° C. for 1 h. Antibody TRN1027 was detected by TMB with goat-anti-human IgG-HRP (1: 10000) and the substrate developer. OD values were measured at dual wavelengths of 450-630 nm.

[2] = target: T2, human neurotrophin-3 (hNT-3) (human, UniProt P20783 139-257); test: as above
T2 construct: Bought protein (Absin)
T2 sequence (looked up): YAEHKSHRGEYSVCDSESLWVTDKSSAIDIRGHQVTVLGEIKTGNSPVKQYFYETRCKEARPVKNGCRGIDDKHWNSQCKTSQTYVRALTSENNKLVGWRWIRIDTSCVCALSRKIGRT
Description: as §1

[3] = target: T3, human brain-derived neurotrophic factor (hBDNF) (human, UniProt P23560 129-247); test: as above
T3 construct: Bought protein (Absin)
T3 sequence (looked up): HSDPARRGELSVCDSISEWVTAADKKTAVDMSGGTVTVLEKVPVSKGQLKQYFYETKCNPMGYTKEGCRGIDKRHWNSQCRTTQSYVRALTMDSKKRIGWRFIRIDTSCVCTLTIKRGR
Description: as §1

[4] = target: T4, human nerve growth factor (hNGF) (human, UniProt P01138 122-241); test: ELISA, hNGF coated at 2 ug/mL, antibody titrated from 10 ug/mL, goat anti-human IgG-HRP
T4 construct: Bought protein (Sino Biological)
T4 sequence (P01138 122-241 limits assumed): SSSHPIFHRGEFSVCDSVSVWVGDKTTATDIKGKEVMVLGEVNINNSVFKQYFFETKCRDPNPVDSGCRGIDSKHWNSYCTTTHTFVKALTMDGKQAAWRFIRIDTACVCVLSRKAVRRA
Description: Antibody TRN1027 was tested for binding activity to hNGF by the ELISA assay. Specifically, 2 μg/mL of hNGF as an antigen was diluted and coated with carbonate buffer at pH 9.6 in a 96-well plate overnight at 4° C.; the plate was blocked by the blocking solution at 37° C. for 2 h. The antibody TRN1027 was serial diluted with the blocking solution, starting at 10 μg/mL, 3-fold dilution for 12 gradients; each gradient of antibody TRN1027 was then added to a 96-well plate and incubated for 1 h at 37° C. The plate was washed with the PBST buffer, added with 100 μ/well LHRP labeled goat anti-human IgG (1: 10000), and incubate at 37° C. for 1 h. The plate was washed with the PBST buffer, added with 100 μL/well TMB developing solution away from light, and placed for 5 min at 37° C. H₂SO₄ was added to stop the reaction. The detection was conducted at 450 nm wavelength. The results were calculated and analyzed.

[5] = target: T4, human nerve growth factor (hNGF); test: SPR (BIACORE3000), antibody captured by anti-human IgG (Fc) on CM5 chip, hNGF as analyte
From the text: The binding force between an antibody and an antigenic determinant, called antibody affinity, reflects the ability of the antibody molecule to bind to the antigenic determinant. In this example, the antigen binding affinity of antibody TRN1027 was detected using surface plasmon resonance analysis (BIACORE3000). Anti-human IgG (Fc) antibody was immobilized on the surface of CM5 sensor chip (GE) by amino-coupling method. The anti-NGF antibody was captured as a ligand, the capture level reached about 400 RU. Different concentrations of hNGF protein were passed through the detection channel as the analyte streams. The binding of antigen to antibody and dissociation of the bound complex was monitored in real-time. Kinetic analysis (calculation of dissociation constants (KD)) was performed with the Biacore X100 Evaluation Software (2.0.1).

[6] = target: T4, human nerve growth factor (hNGF); test: cell-based or functional assay

B1: human anti-NGF antibody TRN1027 (antibody, V domains shown)
VH: QLQLQESGSGLVRPSQTLSLTCAVSGDSMNSGGYSWSWIRQPPGKGLEWIGYIYYSGSTHYNPSLESRVTLSLHRSKNQFFLQLSSVTAADTAVYYCARTLWFGEFEGFDPWGQGILVTVSS
VL: QSALTQPPSASGSPGQSVTISCTGTSSDVGGYNFVSWYQHHPGKAPKLLLYEVSKRPSGVPDRFSGSKSGNTASLTVSGLQAEDEADYFCSSFAGSNNFVFFGGGTKLTVL
B1: no binding (tested: 10 ug/ml-0 ug/ml) [1]; no binding (tested: 10 ug/ml-0 ug/ml) [2]; no binding (tested: 10 ug/ml-0 ug/ml) [3]. For the same binder, the EC50 [4] was 1.07 ng/mL, the Kd [5] was 0.0168 nM and the “EC50 of inhibition of NGF-induced proliferation of TF-1 cells (MTS)” value [6] was 3.01 ng/mL. For the same binder, the “EC50 of neutralisation of NGF on PC-12 cells (Celltiter-Glo cell viability)” value [6] was 8.83 ng/mL.

B2: anti-NGF antibody Tanezumab (CAS No. 880266-57-9, published in CN 102746399 B, also known as E3) (antibody, V domains shown)
VH: QVQLQESGPGLVKPSETLSLTCTVSGFSLIGYDLNWIRQPPGKGLEWIGIIWGDGTTDYNSAVKSRVTISKDTSKNQFSLKLSSVTAADTAVYYCARGGYWYATSYYFDYWGQGTLVTVSS
VL: DIQMTQSPSSLSASVGDRVTITCRASQSISNNLNWYQQKPGKAPKLLIYYTSRFHSGVPSRFSGSGSGTDFTFTISSLQPEDIATYYCQQEHTLPYTFGQGTKLEIKR
For B2, the EC50 [4] was 2.96 ng/mL, the “EC50 of inhibition of NGF-induced proliferation of TF-1 cells (MTS)” value [6] was 14.3 ng/mL and the “EC50 of neutralisation of NGF on PC-12 cells (Celltiter-Glo cell viability)” value [6] was 32.2 ng/mL.
